In patent EP4818204A1 (Nanjing Leads Biolabs Co., Ltd., dated 2026):
Blank lines part the entries; values can stand above or below the binder they belong to.

What was measured:
human FcRn protein = biological target: T1, human FcRn protein (human, UniProt P55899 24-297); experiment: BLI (Octet RED96e), FcRn on SA sensor, antibody as analyte, binding and dissociation at pH 6.0, 1:1 model
T1 construct: Bought, loaded on a streptavidin (SA) sensor; FcRn is by nature a heterodimer with beta-2-microglobulin

human GDF11 protein = biological target: T2, human GDF11 protein (human, UniProt O95390 299-407); experiment: ELISA, coated protein, antibody at 4 µg/mL
T2 construct: Bought
T2 sequence (looked up): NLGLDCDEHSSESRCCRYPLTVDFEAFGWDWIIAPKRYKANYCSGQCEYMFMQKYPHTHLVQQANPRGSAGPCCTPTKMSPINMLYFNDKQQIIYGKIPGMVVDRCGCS

human Activin B protein = biological target: T3, human Activin B protein (human, UniProt P09529 293-407); experiment: ELISA, coated protein, antibody at 4 µg/mL
T3 construct: Bought; Activin B is by nature a dimer of inhibin beta B chains
T3 sequence (looked up): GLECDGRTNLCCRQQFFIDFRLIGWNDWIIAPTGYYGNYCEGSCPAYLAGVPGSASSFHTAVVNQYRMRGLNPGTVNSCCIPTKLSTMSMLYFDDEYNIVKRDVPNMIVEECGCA

Human GDF15 protein = biological target: T4, Human GDF15 protein (human, UniProt Q99988 197-308); experiment: ELISA, coated protein, antibody at 4 µg/mL
T4 construct: Natural GDF15 is said to be a disulfide-linked homodimer; also called Human-GDF15-his
T4 sequence: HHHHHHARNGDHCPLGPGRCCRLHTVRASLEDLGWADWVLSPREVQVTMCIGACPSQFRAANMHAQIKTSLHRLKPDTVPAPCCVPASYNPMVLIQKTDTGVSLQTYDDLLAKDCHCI

human GDNF protein = biological target: T5, human GDNF protein (human, UniProt P39905 78-211); experiment: ELISA, coated protein, antibody at 4 µg/mL
T5 construct: Bought
T5 sequence (looked up): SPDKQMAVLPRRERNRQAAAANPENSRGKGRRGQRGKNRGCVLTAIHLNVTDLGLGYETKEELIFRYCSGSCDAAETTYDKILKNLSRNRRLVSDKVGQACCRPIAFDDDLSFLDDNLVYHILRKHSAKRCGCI

T1 sequence (P55899 24-297 limits assumed, form in doubt): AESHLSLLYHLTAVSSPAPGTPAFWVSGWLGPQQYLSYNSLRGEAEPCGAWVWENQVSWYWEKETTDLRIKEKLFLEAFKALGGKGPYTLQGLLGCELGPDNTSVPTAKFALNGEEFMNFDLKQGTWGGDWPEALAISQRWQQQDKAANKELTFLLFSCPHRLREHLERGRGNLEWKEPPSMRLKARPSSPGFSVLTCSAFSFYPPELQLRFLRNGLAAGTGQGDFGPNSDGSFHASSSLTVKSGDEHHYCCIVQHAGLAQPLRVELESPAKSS

- Kd (human FcRn protein): 7.41 nM
- koff (human FcRn protein): 0.0146 s⁻¹
- kon (human FcRn protein): 1.97e+06 M⁻¹ s⁻¹
- OD value (human GDF11 protein): 0.0735 OD 450 nm-620 nm
- OD value (human Activin B protein): 0.12 OD 450 nm-620 nm
- OD value (Human GDF15 protein): 2.47 OD 450 nm-620 nm
B1: Hu19C4C7 (antibody, human IgG1, kappa)
heavy: QVQLVQSGAEVKKPGSSVKVSCKASGYSFTGYIMNWVRQAPGQSLEWMGDIDPYYGGPNYNQKFQGRVTITVDKSTSTAYMELSSLRSEDTAVYYCSRRDYNYGSFAYWGQGTLVTVSSASTKGPSVFPLAPSSKSTSGGTAALGCLVKDYFPEPVTVSWNSGALTSGVHTFPAVLQSSGLYSLSSVVTVPSSSLGTQTYICNVNHKPSNTKVDKKVEPKSCDKTHTCPPCPAPEAAGAPSVFLFPPKPKDTLMISRTPEVTCVVVDVSHEDPEVKFNWYVDGVEVHNAKTKPREEQYNSTYRVVSVLTVLHQDWLNGKEYKCKVSNKALPAPIEKTISKAKGQPREPQVYTLPPSREEMTKNQVSLTCLVKGFYPSDIAVEWESNGQPENNYKTTPPVLDSDGSFFLYSKLTVDKSRWQQGNVFSCSVMHEALHNHYTQKSLSLSPGK
light: QIVLTQSPATLSLSPGERATLSCRASSSVNYMHWYQQKPGQAPRPLIYATSNLATGIPARFSGSGSGTDYTLTISSLEPEDFAVYYCQQWSDNPPTFGQGTKLEIKRTVAAPSVFIFPPSDEQLKSGTASVVCLLNNFYPREAKVQWKVDNALQSGNSQESVTEQDSKDSTYSLSSTLTLSKADYEKHKVYACEVTHQGLSSPVTKSFNRGEC
notes: Humanized form of murine 19C4C7; human IgG1 constant region with L234A, L235A, G237A and kappa light chain constant region; also called hu19C4C7-IgG1-mut(L234A,L235A,G237A)

- OD value (OD 450 nm-620 nm) (human GDNF protein): 0.273
B2: HuVHH43-3 (Fc fusion)
heavy: QLQLVESGGGLVQPGGSLRLSCAASGHTYGMGWFRQAPGKAREIVSAISRSGSSTYYADSVKGRFTISRDNSKNTLYLQMNSLRAEDTAVYICGASTSALVPTTTGMYAYWGQGTRVTVSSEPKSSDKTHTCPPCPAPEAAGAPSVFLFPPKPKDTLMISRTPEVTCVVVDVSHEDPEVKFNWYVDGVEVHNAKTKPREEQYNSTYRVVSVLTVLHQDWLNGKEYKCKVSNKALPAPIEKTISKAKGQPREPQVYTLPPSREEMTKNQVSLTCLVKGFYPSDIAVEWESNGQPENNYKTTPPVLDSDGSFFLYSKLTVDKSRWQQGNVFSCSVMHEALHNHYTQKSLSLSPGK
notes: also called huVHH43-IgG1-mut(L234A,L235A,G237A); VHH humanized anti-GDF15 antibody
